Data on two proteins can be found in article PMC2704562 (Biochimica et biophysica acta, 2009).

Data set [1] deals with the molecule itself. The data set is described as follows: SEC.
Substrate in data set [2]: Nc1ncnc2c1ncn2[C@@H]1O[C@H](COP(=O)(O)OP(=O)(O)OP(=O)(O)O)[C@@H](O)[C@H]1O
The data set is described as follows: radiometric S-adenosylmethionine formation assay, Michaelis-Menten fit. The data set is classed as biochemical, Methanocaldococcus jannaschii. The conditions noted are these: 0.5 mM [methyl-14C]-L-methionine, ATP 0.05-2.5 mM, 55 °C.

Data set [3] concerns the molecule itself. The experiment in a line: AUC.

B1: Methanococcus jannaschii methionine adenosyltransferase, wild type (enzyme, UniProt Q58605 1-406, looked up)
chain: MRNIIVKKLDVEPIEERPTEIVERKGLGHPDSICDGIAESVSRALCKMYMEKFGTILHHNTDQVELVGGHAYPKFGGGVMVSPIYILLSGRATMEILDKEKNEVIKLPVGTTAVKAAKEYLKKVLRNVDVDKDVIIDCRIGQGSMDLVDVFERQKNEVPLANDTSFGVGYAPLSTTERLVLETERFLNSDELKNEIPAVGEDIKVMGLREGKKITLTIAMAVVDRYVKNIEEYKEVIEKVRKKVEDLAKKIADGYEVEIHINTADDYERESVYLTVTGTSAEMGDDGSVGRGNRVNGLITPFRPMSMEAASGKNPVNHVGKIYNILANLIANDIAKLEGVKECYVRILSQIGKPINEPKALDIEIITEDSYDIKDIEPKAKEIANKWLDNIMEVQKMIVEGKVTTF
Take B1: the “stoichiometry N” value in data set [1] amounted to 2. Besides, in data set [2], the Km was 190 ± 30 µM and the turnover number (kcat) came out at 1.46 ± 0.05 s⁻¹.

B2: Mj-MAT W387F-Y170W (enzyme, Methanococcus jannaschii, UniProt Q58605 1-406, looked up)
chain: MRNIIVKKLDVEPIEERPTEIVERKGLGHPDSICDGIAESVSRALCKMYMEKFGTILHHNTDQVELVGGHAYPKFGGGVMVSPIYILLSGRATMEILDKEKNEVIKLPVGTTAVKAAKEYLKKVLRNVDVDKDVIIDCRIGQGSMDLVDVFERQKNEVPLANDTSFGVGWAPLSTTERLVLETERFLNSDELKNEIPAVGEDIKVMGLREGKKITLTIAMAVVDRYVKNIEEYKEVIEKVRKKVEDLAKKIADGYEVEIHINTADDYERESVYLTVTGTSAEMGDDGSVGRGNRVNGLITPFRPMSMEAASGKNPVNHVGKIYNILANLIANDIAKLEGVKECYVRILSQIGKPINEPKALDIEIITEDSYDIKDIEPKAKEIANKFLDNIMEVQKMIVEGKVTTF
As for B2, the “stoichiometry N” value in data set [3] is 2. For the same protein, in data set [2], the Km worked out at 100 ± 20 µM and the kcat worked out at 2.39 ± 0.03 s⁻¹.
